Results from the RNAGym collection of RNA variant scans (doi:10.1021/acssynbio.7b00057).

B1: Pistol ribozyme (parent)
chain: GGGUCGUUGUUCCAUAAUCGCGUGGAUAUGGCACGCAAGUUUCUACCGGGCACCGUAAAUGUCCGACUGGAGCCGUUCGGGCGGCUAUAAACAGACCUCAGGCCCGAAGCGUGGCGGCACCUGCCGCCGGUGGUAAAAAAGAUCGGAAGAGCACACGUCU

Variants of: B1
Assay: aptazyme ON/OFF ratio, guanine; higher = stronger switching; co-transcriptional cleavage with and without guanine

Variant	aptazyme ON/OFF ratio
GGGUCGACUAACUAUAAUCGCGUGGAUAUGGCACGCAAGUUUCUACCGGGCACCGUAAAUGUCCGACUGGAGCCGUUCGGGCGGCUAUAAACAGACCUCAGGCCCGAAGCGUGGCGGCACCUGCCGCCGGUGGUAAAAAAGAUCGGAAGAGCACACGUCU [U7A U8C G9U U10A U11A C13U]	1.16
GGGUCGACUAACGAUAAUCGCGUGGAUAUGGCACGCAAGUUUCUACCGGGCACCGUAAAUGUCCGACUGGAGCCGUUCGGGCGGCUAUAAACAGACCUCAGGCCCGAAGCGUGGCGGCACCUGCCGCCGGUGGUAAAAAAGAUCGGAAGAGCACACGUCU [U7A U8C G9U U10A U11A C13G]	1.08
GGGUCGACUAACAAUAAUCGCGUGGAUAUGGCACGCAAGUUUCUACCGGGCACCGUAAAUGUCCGACUGGAGCCGUUCGGGCGGCUAUAAACAGACCUCAGGCCCGAAGCGUGGCGGCACCUGCCGCCGGUGGUAAAAAAGAUCGGAAGAGCACACGUCU [U7A U8C G9U U10A U11A C13A]	1.17
GGGUCGACUAAGAAUAAUCGCGUGGAUAUGGCACGCAAGUUUCUACCGGGCACCGUAAAUGUCCGACUGGAGCCGUUCGGGCGGCUAUAAACAGACCUCAGGCCCGAAGCGUGGCGGCACCUGCCGCCGGUGGUAAAAAAGAUCGGAAGAGCACACGUCU [U7A U8C G9U U10A U11A C12G C13A]	1.15
GGGUCGACUAAGUAUAAUCGCGUGGAUAUGGCACGCAAGUUUCUACCGGGCACCGUAAAUGUCCGACUGGAGCCGUUCGGGCGGCUAUAAACAGACCUCAGGCCCGAAGCGUGGCGGCACCUGCCGCCGGUGGUAAAAAAGAUCGGAAGAGCACACGUCU [U7A U8C G9U U10A U11A C12G C13U]	1.34
GGGUCGACUAAGGAUAAUCGCGUGGAUAUGGCACGCAAGUUUCUACCGGGCACCGUAAAUGUCCGACUGGAGCCGUUCGGGCGGCUAUAAACAGACCUCAGGCCCGAAGCGUGGCGGCACCUGCCGCCGGUGGUAAAAAAGAUCGGAAGAGCACACGUCU [U7A U8C G9U U10A U11A C12G C13G]	1.2
GGGUCGACUACUCAUAAUCGCGUGGAUAUGGCACGCAAGUUUCUACCGGGCACCGUAAAUGUCCGACUGGAGCCGUUCGGGCGGCUAUAAACAGACCUCAGGCCCGAAGCGUGGCGGCACCUGCCGCCGGUGGUAAAAAAGAUCGGAAGAGCACACGUCU [U7A U8C G9U U10A U11C C12U]	1.04
GGGUCGACUACACAUAAUCGCGUGGAUAUGGCACGCAAGUUUCUACCGGGCACCGUAAAUGUCCGACUGGAGCCGUUCGGGCGGCUAUAAACAGACCUCAGGCCCGAAGCGUGGCGGCACCUGCCGCCGGUGGUAAAAAAGAUCGGAAGAGCACACGUCU [U7A U8C G9U U10A U11C C12A]	1.2
GGGUCGACUACGCAUAAUCGCGUGGAUAUGGCACGCAAGUUUCUACCGGGCACCGUAAAUGUCCGACUGGAGCCGUUCGGGCGGCUAUAAACAGACCUCAGGCCCGAAGCGUGGCGGCACCUGCCGCCGGUGGUAAAAAAGAUCGGAAGAGCACACGUCU [U7A U8C G9U U10A U11C C12G]	1.27
GGGUCGACUACGGAUAAUCGCGUGGAUAUGGCACGCAAGUUUCUACCGGGCACCGUAAAUGUCCGACUGGAGCCGUUCGGGCGGCUAUAAACAGACCUCAGGCCCGAAGCGUGGCGGCACCUGCCGCCGGUGGUAAAAAAGAUCGGAAGAGCACACGUCU [U7A U8C G9U U10A U11C C12G C13G]	1.08
GGGUCGACUACGUAUAAUCGCGUGGAUAUGGCACGCAAGUUUCUACCGGGCACCGUAAAUGUCCGACUGGAGCCGUUCGGGCGGCUAUAAACAGACCUCAGGCCCGAAGCGUGGCGGCACCUGCCGCCGGUGGUAAAAAAGAUCGGAAGAGCACACGUCU [U7A U8C G9U U10A U11C C12G C13U]	1.18
GGGUCGACUACGAAUAAUCGCGUGGAUAUGGCACGCAAGUUUCUACCGGGCACCGUAAAUGUCCGACUGGAGCCGUUCGGGCGGCUAUAAACAGACCUCAGGCCCGAAGCGUGGCGGCACCUGCCGCCGGUGGUAAAAAAGAUCGGAAGAGCACACGUCU [U7A U8C G9U U10A U11C C12G C13A]	1.23
GGGUCGACUAGAAAUAAUCGCGUGGAUAUGGCACGCAAGUUUCUACCGGGCACCGUAAAUGUCCGACUGGAGCCGUUCGGGCGGCUAUAAACAGACCUCAGGCCCGAAGCGUGGCGGCACCUGCCGCCGGUGGUAAAAAAGAUCGGAAGAGCACACGUCU [U7A U8C G9U U10A U11G C12A C13A]	1.08
GGGUCGACUAGAGAUAAUCGCGUGGAUAUGGCACGCAAGUUUCUACCGGGCACCGUAAAUGUCCGACUGGAGCCGUUCGGGCGGCUAUAAACAGACCUCAGGCCCGAAGCGUGGCGGCACCUGCCGCCGGUGGUAAAAAAGAUCGGAAGAGCACACGUCU [U7A U8C G9U U10A U11G C12A C13G]	1.2
GGGUCGACUAGAUAUAAUCGCGUGGAUAUGGCACGCAAGUUUCUACCGGGCACCGUAAAUGUCCGACUGGAGCCGUUCGGGCGGCUAUAAACAGACCUCAGGCCCGAAGCGUGGCGGCACCUGCCGCCGGUGGUAAAAAAGAUCGGAAGAGCACACGUCU [U7A U8C G9U U10A U11G C12A C13U]	1.1
GGGUCGACUAAUUAUAAUCGCGUGGAUAUGGCACGCAAGUUUCUACCGGGCACCGUAAAUGUCCGACUGGAGCCGUUCGGGCGGCUAUAAACAGACCUCAGGCCCGAAGCGUGGCGGCACCUGCCGCCGGUGGUAAAAAAGAUCGGAAGAGCACACGUCU [U7A U8C G9U U10A U11A C12U C13U]	1.16
GGGUCGACUAAUAAUAAUCGCGUGGAUAUGGCACGCAAGUUUCUACCGGGCACCGUAAAUGUCCGACUGGAGCCGUUCGGGCGGCUAUAAACAGACCUCAGGCCCGAAGCGUGGCGGCACCUGCCGCCGGUGGUAAAAAAGAUCGGAAGAGCACACGUCU [U7A U8C G9U U10A U11A C12U C13A]	1.21
GGGUCGACUAAUGAUAAUCGCGUGGAUAUGGCACGCAAGUUUCUACCGGGCACCGUAAAUGUCCGACUGGAGCCGUUCGGGCGGCUAUAAACAGACCUCAGGCCCGAAGCGUGGCGGCACCUGCCGCCGGUGGUAAAAAAGAUCGGAAGAGCACACGUCU [U7A U8C G9U U10A U11A C12U C13G]	1.12
